Results on two molecules are retold here after paper doi:10.1101/655282.

Where no end group is shown, it is not given here. [ ]: non-standard residue; d: D form. pS = N[C@@H](COP(=O)(O)O)C(=O)O

For this assay, the target named is SUMO1 (UniProt P63165).
Sequence of UniProt P63165 (P63165 1-97): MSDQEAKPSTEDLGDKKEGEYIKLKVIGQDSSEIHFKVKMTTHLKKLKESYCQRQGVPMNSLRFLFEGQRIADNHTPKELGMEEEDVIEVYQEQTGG

B1: IE2 N-Terminal Domain (IE2-NTD), FITC labelled (peptide)
peptide: PLIKQEDIKPEPDFTIQYRNKIIDTAGCIVISDSEEEQG
modifications: also: FITC label, site not given here
On to B1, for which the rate of increase in anisotropy, real-time SUMOylation assay with SUMO1 is 0.00012 min⁻¹.

B2: phosphorylated IE2-NTD (IE2-ppNTD) (peptide)
peptide: PLIKQEDIKPEPDFTIQYRNKIIDTAGCIVI[pS]D[pS]EEEQG
modifications: also: FITC label, site not given here
With B2, the rate of increase in anisotropy, real-time SUMOylation assay with SUMO1 was 0.00021 min⁻¹.
